Ten molecules from patent publication US20200385427A1 can be followed below.

In assay [1] the target is Pin1 (human) (UniProt Q13526). The experiment in a line: fluorescence anisotropy, FITC-labeled peptide. (Fluorescence polarisation rises when a labelled molecule tumbles more slowly, as on binding a larger partner.)
Assay [2] has as its target MBP-Pin1 (S16A/Y23A mutant Pin1 as a maltose-binding protein fusion at the N-terminus) (UniProt Q13526). The experiment in a line: FA of TMR-labeled peptide released from the bead, 5 µM MBP-Pin1.
Assay [3] addresses ybbR-tagged PTP1B catalytic domain (amino acids 1-321) (UniProt P18031). The experiment in a line: cell-based or functional assay.
In assay [4] the target is Pin1 (human) (UniProt Q13526). The assay can be described thus: cell-based or functional assay.
Assay [5] deals with full-length human S16A/Y23A mutant Pin1 (human) (UniProt Q13526). The assay can be described thus: fluorescence anisotropy, FITC-labeled peptide.

Starred links: 1 amine or outer side, 2 acyl side, 3 side chain; linkers in the order of their positions; H or OH if unused. Non-standard residues stand in square brackets, D forms with d. No end group written: not given here. Trimesoyl = O=C(c1cc(C(=O)[*:2])cc(C(=O)[*:3])c1)[*:1]; F2Pmp = N[C@@H](Cc1ccc(C(F)(F)P(=O)(O)O)cc1)C(=O)O; Phe(4-F) = N[C@@H](Cc1ccc(F)cc1)C(=O)O; dPhe(4-F) = N[C@H](Cc1ccc(F)cc1)C(=O)O; 2Nal = N[C@@H](Cc1ccc2ccccc2c1)C(=O)O; Phg = N[C@H](C(=O)O)c1ccccc1; Pip = O=C(O)[C@@H]1CCCCN1; Nle = CCCC[C@H](N)C(=O)O; Dap = NC[C@H](N)C(=O)O; Sar = CNCC(=O)O

A word on the Kd: it is the concentration at which binding is half-saturated.

Sequence of ybbR-tagged PTP1B catalytic domain (amino acids 1-321) (P18031 other isoform, or with tags, fused parts or gaps limits assumed): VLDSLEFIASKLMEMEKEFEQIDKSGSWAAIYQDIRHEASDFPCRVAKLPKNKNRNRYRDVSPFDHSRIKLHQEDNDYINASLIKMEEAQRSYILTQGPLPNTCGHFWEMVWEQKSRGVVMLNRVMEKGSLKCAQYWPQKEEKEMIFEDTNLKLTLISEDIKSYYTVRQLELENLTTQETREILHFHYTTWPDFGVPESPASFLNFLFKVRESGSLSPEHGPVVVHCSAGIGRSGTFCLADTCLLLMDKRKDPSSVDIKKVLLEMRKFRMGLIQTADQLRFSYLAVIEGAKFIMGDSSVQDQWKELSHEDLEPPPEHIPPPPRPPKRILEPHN

B1: peptide 6 (Table 18) (peptide)
peptide: XXHEXXRAAXFXRRRRXK
modifications: not fully specified; bicyclo[Tm-(Phg-His-D-Glu-Pip-Nal-Arg-Ala-D-Ala)-Dap-(Phe-Nal-Arg-Arg-Arg-Arg-Dap)]-Lys
B1 came in with a Kd with Pin1 (human) [1] of 1000 nM. Moreover, the FA increase relative to the no-protein control in assay [2] is greater than 50%.

B2: peptide 7 (Table 18) (peptide)
peptide: XXIEXXRAAXFXRRRRXK
modifications: not fully specified; bicyclo[Tm-(Mpa-Ile-D-Glu-Pip-Nal-Arg-Ala-D-Ala)-Dap-(Phe-Nal-Arg-Arg-Arg-Arg-Dap)]-Lys
Regarding B2, the Kd with Pin1 (human) [1] worked out at 1000 nM. Besides, the FA increase relative to the no-protein control in assay [2] is greater than 50%.

B3: peptide 22 (Table 18) (peptide)
peptide: Trimesoyl-P[Sar][dD][Pip][2Nal]RR[dF][Dap]F[2Nal]RRRR[Dap]K
modifications: linker (positions not given here) via Trimesoyl; not fully specified (C-terminus, bridges); printed as bicyclo[Tm-(Pro-Sar-D-Asp-Pip-Nal-Arg-Arg-D-Phe)-Dap-(Phe-Nal-Arg-Arg-Arg-Arg-Dap)]-Lys
Take B3: the fold increase of Pin1 inhibitory activity against the D-Ala parent with Pin1 (human) [1] was found to be 2 fold.

Molecule cyclo(IP[Phg][F2Pmp][Nle]RRRR[2Nal]FQ) [Monocyclic Inhibitor 3] had an IC50 (inhibition of pNPP hydrolysis) in assay [3] of 200 nM.

B4: peptide 8 (Table 18) (peptide)
peptide: XHXTXXRAAXFXRRRRXK
modifications: not fully specified; bicyclo[Tm-(His-Phg-D-Thr-Pip-Nal-Arg-Ala-D-Ala)-Dap-(Phe-Nal-Arg-Arg-Arg-Arg-Dap)]-Lys
In the case of B4, the Kd in the assay with Pin1 (human) [1] amounted to 1000 nM. In assay [2], the FA increase relative to the no-protein control was greater than 50%.

B5: peptide 37 (Table 18) (peptide)
peptide: Trimesoyl-[dPhe(4-F)][Phe(4-F)][dT][Pip][2Nal]RA[dF][Dap]F[2Nal]RRRR[Dap]K
modifications: linker (positions not given here) via Trimesoyl; not fully specified (C-terminus, bridges); printed as bicyclo[Tm-(D-4-Fpa-Fpa-D-Thr-Pip-Nal-Arg-Ala-D-Phe)-Dap-(Phe-Nal-Arg-Arg-Arg-Arg-Dap)]-Lys
As for B5, in the assay with Pin1 (human) [4], the IC50 (HeLa cell growth, MTT assay) worked out at 1 µM; the IC50 (cis-trans isomerase activity toward Suc-Ala-Glu-Pro-Phe-pNA) was 170 nM; the PML protein level in HeLa cells (western blot), at 0.2 µM inhibitor was found to be 1.8 fold; the PML protein level in HeLa cells (western blot), at ˜1 µM inhibitor came to 3.3 fold.

B6: Pin1 inhibitor 7 (peptide)
peptide: XAXXXXRAAXFXRRRRXK
modifications: not fully specified; bicyclo[Tm(D-Ala-Sar-D-pThr-Pip-Nal-Arg-Ala-D-Ala)-Dap-(Phe-Nal-Arg-Arg-Arg-Arg-Dap)]-Lys-NH2
With B6, in the assay with Pin1 (human) [4], the IC50 (HeLa cell growth, MTT assay) was found to be 1.8 µM and the PML protein level in HeLa cells (western blot), at 5 µM was determined as 3.1 fold. The fold improvement of potency against inhibitor 6 in assay [5] is 2 fold.

B7: Monocyclic Inhibitor 1 (peptide)
peptide: cyclo([dT][dN][dV][F2Pmp][dA]RRRR[2Nal]FQ)
SMILES: CC(C)[C@H]1NC(=O)[C@@H](CC(N)=O)NC(=O)[C@@H]([C@H](C)O)NC(=O)[C@H](CCC(N)=O)NC(=O)[C@H](Cc2ccccc2)NC(=O)[C@H](Cc2ccc3ccccc3c2)NC(=O)[C@H](CCCNC(=N)N)NC(=O)[C@H](CCCNC(=N)N)NC(=O)[C@H](CCCNC(=N)N)NC(=O)[C@H](CCCNC(=N)N)NC(=O)[C@@H](C)NC(=O)[C@H](Cc2ccc(C(F)(F)P(=O)(O)O)cc2)NC1=O
B7: in assay [3], the IC50 (inhibition of pNPP hydrolysis) was 100 nM.

For AXXXXYQK (cyclo(D-Ala-Sar-D-pThr-Pip-Nal-Tyr-Gln)-Lys-NH2) [Pin1 inhibitor 5], in the assay with Pin1 (human) [1], the Kd was 240 nM.

B8: peptide 4 (Table 18) (peptide)
peptide: Trimesoyl-[dF][Phe(4-F)][dT][Pip][2Nal]RA[dA][Dap]F[2Nal]RRRR[Dap]K
modifications: linker (positions not given here) via Trimesoyl; not fully specified (C-terminus, bridges); printed as bicyclo[Tm-(D-Phe-Fpa-D-Thr-Pip-Nal-Arg-Ala-D-Ala)-Dap-(Phe-Nal-Arg-Arg-Arg-Arg-Dap)]-Lys
As to B8, in the assay with Pin1 (human) [1], the Kd worked out at 1000 nM.
